Test results taken from paper PMC9741607, “Cryo-electron tomography reveals structural insights into the membrane remodeling mode of dynamin-like EHD filaments” (Nature Communications, 2022).

Target: the molecule itself
Assay: cryo-EM structure; cryo-electron tomography and subtomogram averaging of EHD4^ΔN filaments on membrane tubes (liposomes of 50% Folch extract, 40% phosphatidylethanolamine, 10% cholesterol) with AMPPNP; pseudo-atomic model by rigid-body and flexible fitting

B1: mouse EHD4 (residues 22-541, EHD4^ΔN) (domain or fragment, UniProt Q9EQP2 22-541, looked up)
chain: QTVTGGLRSLYQRKVLPLEEAYRFHEFHSPALEDADFENKPMILLVGQYSTGKTTFIRYLLEQDFPGMRIGPEPTTDSFIAVMYGETEGSTPGNALVVDPKKPFRKLSRFGNAFLNRFMCSQLPNQVLKSISIIDSPGILSGEKQRISRGYDFCQVLQWFAERVDRIILLFDAHKLDISDEFSEAIKAFRGQDDKIRVVLNKADQVDTQQLMRVYGALMWSLGKVINTPEVLRVYIGSFWAQPLQNTDNRRLFEAEAQDLFRDIQSLPQKAAVRKLNDLIKRARLAKVHAYIISYLKKEMPNMFGKENKKRELIYRLPEIYVQLQREYQISAGDFPEVKAMQEQLENYDFTKFHSLKPKLIEAVDNMLTNKISSLMGLISQEEMNMPTQMVQGGAFDGTTEGPFNQGYGEGAKEGADEEEWVVAKDKPVYDELFYTLSPINGKISGVNAKKEMVTSKLPNSVLGKIWKLADCDCDGMLDEEEFALAKHLIKIKLDGYELPNSLPPHLVPPSHRKSLPKAD
notes: Eps15-homology domain containing protein 4 (EHD4), mouse, amino acids 22-541; N-terminal residues deleted; The fitted model covers residues 22-535; The His6 tag was removed with PreScission protease; also called N-terminal deletion construct of mouse EHD4; EHD4/Pincher; source: E. coli BL21(DE3)-Rosetta2, purified (NiNTA, Superdex 200); not shown: His6, N-terminal, cleaved
Q: Does B1 bind?
A: Result: binds
